Here are results for 44 molecules from patent publication EP2014310A2 (Dyax Corporation, dated 2009).

First the molecules themselves.
B1: phage isolate GEQCSNLAVACCST (peptide)
peptide: GEQCSNLAVACCST
B2: phage isolate WRICWESSWGGEVCIGH (peptide)
peptide: WRICWESSWGGEVCIGH
B3: phage isolate FGECWEYFWGGEFCLRV (peptide)
peptide: FGECWEYFWGGEFCLRV
B4: phage isolate GGWCQLVDHSWWWCGDS (peptide)
peptide: GGWCQLVDHSWWWCGDS
B5: phage isolate PGWCDFSPQLGQWMCDWF (peptide)
peptide: PGWCDFSPQLGQWMCDWF
B6: phage isolate YSHCIETSMENIWFCDFD (peptide)
peptide: YSHCIETSMENIWFCDFD
B7: phage isolate DNWCEIVVEKGQWFCYGS (peptide)
peptide: DNWCEIVVEKGQWFCYGS
B8: phage isolate SGYCEFESDTGRWFCSSW (peptide)
peptide: SGYCEFESDTGRWFCSSW
B9: phage isolate SDLCYNQSGWWELCYFD (peptide)
peptide: SDLCYNQSGWWELCYFD
B10: phage isolate SRVCWEYSWGGEVCYRV (peptide)
peptide: SRVCWEYSWGGEVCYRV
B11: phage isolate SRVCWEYSWGGQICLGY (peptide)
peptide: SRVCWEYSWGGQICLGY
B12: phage isolate GWCQMDAQGIWSCWAD (peptide)
peptide: GWCQMDAQGIWSCWAD
B13: phage isolate FSVCWEYSWGGEVCLRQ (peptide)
peptide: FSVCWEYSWGGEVCLRQ
B14: phage isolate NWECGWSNMFQKEFCARP (peptide)
peptide: NWECGWSNMFQKEFCARP
B15: phage isolate LGYCMYDYENRGWTCYPP (peptide)
peptide: LGYCMYDYENRGWTCYPP
modifications: not fully specified; cysteine pairing not given here
B16: phage isolate GWACAKWPWGGEICQPS (peptide)
peptide: GWACAKWPWGGEICQPS
B17: phage isolate LSLCYNDMHGWWEHCQWY (peptide)
peptide: LSLCYNDMHGWWEHCQWY
B18: phage isolate DRWCMLDQEKGWWLCGPP (peptide)
peptide: DRWCMLDQEKGWWLCGPP
B19: phage isolate NWKCEYTQGYDYTECVYL (peptide)
peptide: NWKCEYTQGYDYTECVYL
B20: phage isolate DSWCELEHQSGIWRCDFW (peptide)
peptide: DSWCELEHQSGIWRCDFW
B21: phage isolate PPFCIYQEPSGQWWCYDH (peptide)
peptide: PPFCIYQEPSGQWWCYDH
B22: phage isolate YPGCYETSLSGVWFCADG (peptide)
peptide: YPGCYETSLSGVWFCADG
B23: phage isolate DWACDEYWSAYSVLCKHP (peptide)
peptide: DWACDEYWSAYSVLCKHP
B24: phage isolate AGWCEYVAPQGAWRCFHN (peptide)
peptide: AGWCEYVAPQGAWRCFHN
B25: phage isolate LDNCIWNVWKGVQDCEYS (peptide)
peptide: LDNCIWNVWKGVQDCEYS
B26: phage isolate PFWCKFQQSKAMFPCSWF (peptide)
peptide: PFWCKFQQSKAMFPCSWF
B27: phage isolate WWECKREEYRNTTWCAWA (peptide)
peptide: WWECKREEYRNTTWCAWA
B28: phage isolate GSWCEMRQDVGKWNCFSD (peptide)
peptide: GSWCEMRQDVGKWNCFSD
B29: phage isolate PAQCWESNYQGIFFCDNP (peptide)
peptide: PAQCWESNYQGIFFCDNP
B30: phage isolate YGVCWEYSWGGEVCLRF (peptide)
peptide: YGVCWEYSWGGEVCLRF
B31: phage isolate YSDCLFQLWKGSVCPPS (peptide)
peptide: YSDCLFQLWKGSVCPPS
B32: phage isolate SSVCFEYSWGGEVCFRY (peptide)
peptide: SSVCFEYSWGGEVCFRY
B33: phage isolate NSECGCPNMLHKEFCARH (peptide)
peptide: NSECGCPNMLHKEFCARH
B34: phage isolate PPLCYFVGTQEWHHCNPF (peptide)
peptide: PPLCYFVGTQEWHHCNPF
B35: phage isolate SRVCWEDSWGGEVCFRY (peptide)
peptide: SRVCWEDSWGGEVCFRY
B36: phage isolate PGHCEYIWIDEQPWCVRL (peptide)
peptide: PGHCEYIWIDEQPWCVRL
B37: phage isolate YYQCQRYWDGKTWWCEYN (peptide)
peptide: YYQCQRYWDGKTWWCEYN
B38: phage isolate ASTCVFHDHPYFPMCQDN (peptide)
peptide: ASTCVFHDHPYFPMCQDN
B39: phage isolate PDTCTMWGDSGRWYCFPA (peptide)
peptide: PDTCTMWGDSGRWYCFPA
B40: phage isolate YPWCHELSDSVTRFCVPW (peptide)
peptide: YPWCHELSDSVTRFCVPW
B41: phage isolate YPWCHEHSDSVTRFCVPW (peptide)
peptide: YPWCHEHSDSVTRFCVPW
B42: phage isolate WDDCIWHMWLKKKDCNSG (peptide)
peptide: WDDCIWHMWLKKKDCNSG
B43: phage isolate DHMCRSPDYQDHVFCMYW (peptide)
peptide: DHMCRSPDYQDHVFCMYW
B44: phage isolate NGSCWYDFGWETEICFHN (peptide)
peptide: NGSCWYDFGWETEICFHN

Ends that are not written are not given here.

The target of the first test is T1, human KDR-Fc fusion (R&D Systems #357-KD-050) (human, UniProt P35968 20-764).
T1 construct: bought
T1 sequence (P35968 20-764): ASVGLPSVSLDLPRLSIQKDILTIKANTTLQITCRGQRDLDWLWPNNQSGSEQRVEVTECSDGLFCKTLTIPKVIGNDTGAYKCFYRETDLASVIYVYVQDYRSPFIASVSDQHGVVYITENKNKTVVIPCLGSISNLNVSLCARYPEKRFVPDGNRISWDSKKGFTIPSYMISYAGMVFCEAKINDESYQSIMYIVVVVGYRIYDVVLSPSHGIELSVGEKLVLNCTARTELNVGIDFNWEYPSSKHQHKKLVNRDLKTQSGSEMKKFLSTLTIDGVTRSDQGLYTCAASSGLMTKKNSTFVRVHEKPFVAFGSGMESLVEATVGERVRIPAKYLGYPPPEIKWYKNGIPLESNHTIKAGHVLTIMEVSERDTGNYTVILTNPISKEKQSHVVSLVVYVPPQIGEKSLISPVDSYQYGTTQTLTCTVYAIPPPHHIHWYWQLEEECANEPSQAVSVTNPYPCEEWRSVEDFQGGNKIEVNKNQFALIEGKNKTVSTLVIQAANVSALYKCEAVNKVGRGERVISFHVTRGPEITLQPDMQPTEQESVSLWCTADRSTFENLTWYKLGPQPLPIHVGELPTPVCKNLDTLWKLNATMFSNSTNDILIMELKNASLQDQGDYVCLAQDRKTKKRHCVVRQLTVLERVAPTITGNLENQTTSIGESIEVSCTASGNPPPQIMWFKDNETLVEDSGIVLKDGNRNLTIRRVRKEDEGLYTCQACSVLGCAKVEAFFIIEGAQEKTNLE
As to the kind of experiment: phage binding screen on KDR-Fc; class legend in paragraph 246.
Regarding B1, the binding result is “binds”.

The target in a further test is T1, human KDR-Fc fusion (R&D Systems …). The test is described as above. The source holds these as a separate data set.
Regarding B2, the binding result is “binds”.
In the case of B3, the binding result is recorded as “binds”.
B4: the binding result is reported as “binds”.
The same measure, in the same setting: as for B5, the entry is “binds”; as for B6, “binds”.
Turning to B7, the binding result was “binds”.
Take B8: the binding result is “binds”.
The same measure, in the same setting: as for B9, the entry is “binds”; as for B10, “binds”; as for B11, “binds”.
On the same count and under the same terms, as for B12, the entry is “binds”; as for B13, “binds”; as for B14, “binds”.
For the molecule B15, the binding result was “binds”.
B16: the binding result is listed as “binds”.
Take B17: the binding result is “binds”.
B18: the binding result is reported as “binds”.
On the same count and under the same terms, as for B19, the entry is “binds”.
With B20, the binding result is reported as “binds”.
The same measure, in the same setting: as for B21, the entry is “binds”; as for B22, “binds”.
B23: the binding result is given as “binds”.
On the same count and under the same terms, the value for B24 was “binds”; that for B25 was “binds”; that for B26 was “binds”.
For the molecule B27, the binding result is recorded as “binds”.
With B28, the binding result is given as “binds”.
For B29, the binding result is recorded as “binds”.
For the molecule B30, the binding result was “binds”.
As for B31, the binding result is on record as “binds”.
Turning to B32, the binding result was “binds”.
Turning to B33, the binding result is recorded as “binds”.
As for B34, the binding result is given as “binds”.
With B35, the binding result is “binds”.
Same read-out and setting: the value for B36 was “binds”; that for B37 was “binds”; that for B38 was “binds”.
Same read-out and setting: the value for B39 was “binds”; that for B40 was “binds”.
Take B41: the binding result is given as “binds”.
Regarding B42, the binding result is recorded as “binds”.
In the case of B43, the binding result is listed as “binds”.
For B44, the binding result was “binds”.
